Experiments:
Conditions in all cases: remark: other sources report otherwise
[1] = biological target: 113E7; test: ELISA signal over HTRF expression signal, HEK293F
[2] = biological target: 86B4; test: ELISA signal over HTRF expression signal, HEK293F
[3] = biological target: 91C4; test: ELISA signal over HTRF expression signal, HEK293F
[4] = biological target: 171E5; test: ELISA signal over HTRF expression signal, HEK293F
[5] = biological target: 6E12; test: ELISA signal over HTRF expression signal, HEK293F
[6] = biological target: 131B5; test: ELISA signal over HTRF expression signal, HEK293F
[7] = biological target: 181H9; test: ELISA signal over HTRF expression signal, HEK293F
[8] = biological target: 127H1; test: ELISA signal over HTRF expression signal, HEK293F
[9] = biological target: 220C9; test: ELISA signal over HTRF expression signal, HEK293F
[10] = biological target: 7A7; test: ELISA signal over HTRF expression signal, HEK293F
[11] = biological target: 71C4; test: ELISA signal over HTRF expression signal, HEK293F
[12] = biological target: 74H9; test: ELISA signal over HTRF expression signal, HEK293F
[13] = biological target: 71H2; test: ELISA signal over HTRF expression signal, HEK293F
[14] = biological target: 115A1; test: ELISA signal over HTRF expression signal, HEK293F
[15] = biological target: 86G2; test: ELISA, coated CR6261, P. pastoris medium
[16] = biological target: 6A1; test: ELISA, coated CR6261, P. pastoris medium
[17] = biological target: 51G10; test: ELISA, coated CR6261, P. pastoris medium
[18] = biological target: 75G5; test: ELISA, coated CR6261, P. pastoris medium
[19] = biological target: 60A2; test: ELISA, coated CR6261, P. pastoris medium
[20] = biological target: 48B11; test: ELISA, coated CR6261, P. pastoris medium
[21] = biological target: 88C5; test: ELISA, coated CR6261, P. pastoris medium
[22] = biological target: 36H2; test: ELISA, coated CR6261, P. pastoris medium
[23] = biological target: 71E7; test: ELISA, coated CR6261, P. pastoris medium
[24] = biological target: 7D9; test: ELISA, coated CR6261, P. pastoris medium
[25] = biological target: 4C1; test: ELISA, coated CR6261, P. pastoris medium
[26] = biological target: 51G3; test: ELISA, coated CR6261, P. pastoris medium
[27] = biological target: 86G3; test: ELISA, coated CR6261, P. pastoris medium
[28] = biological target: 26H1; test: ELISA, coated CR6261, P. pastoris medium
[29] = biological target: 2C4; test: ELISA, coated CR6261, P. pastoris medium
[30] = biological target: 69D2; test: ELISA, coated CR6261, P. pastoris medium
[31] = biological target: 35H3; test: ELISA, coated CR6261, P. pastoris medium
[32] = biological target: 86H9; test: ELISA, coated CR6261, P. pastoris medium
[33] = biological target: 96H8; test: ELISA, coated CR6261, P. pastoris medium
[34] = biological target: 84B8; test: ELISA, coated CR6261, P. pastoris medium
[35] = biological target: 8D7; test: ELISA, coated CR6261, P. pastoris medium
[36] = biological target: 850; test: ELISA, coated CR6261, P. pastoris medium
[37] = biological target: 9C6; test: ELISA, coated CR6261, P. pastoris medium
[38] = biological target: 2D9; test: ELISA, coated CR6261, P. pastoris medium
[39] = biological target: 53G10; test: ELISA, coated CR6261, P. pastoris medium
[40] = biological target: 71C4; test: ELISA, coated CR6261, P. pastoris medium
[41] = biological target: 97G10; test: ELISA, coated CR6261, P. pastoris medium
[42] = biological target: 58A5; test: ELISA, coated CR6261, P. pastoris medium
[43] = biological target: H1-mini2-cluster1+5+6-GCN4 without leader sequence and with FLAG-thrombin-foldon-HIS; test: ELISA, coated CR6261, P. pastoris medium; average of the parental

B1: CR6261 (antibody, V domains shown)
VH: EVQLVESGAEVKKPGSSVKVSCKASGGPFRSYAISWVRQAPGQGPEWMGGIIPIFGTTKYAPKFQGRVTITADDFAGTVYMELSSLRSEDTAMYYCAKHMGYQVRETMDVWGKGTTVTVSS
VL: QSVLTQPPSVSAAPGQKVTISCSGSSSNIGNDYVSWYQQLPGTAPKLLIYDNNKRPSGIPDRFSGSKSGTSATLGITGLQTGDEANYYCATWDRRPTAYVVFGGGTKLTVLG
[1]
  fold increase of ratio over parental SEQ ID NO: 6: 2.87
  ratio (binding signal/HTRF signal): 49.9
[2]
  fold increase of ratio over parental SEQ ID NO: 6: 3.44
  ratio (binding signal/HTRF signal): 59.6
[3]
  fold increase of ratio over parental SEQ ID NO: 6: 1.98
  ratio (binding signal/HTRF signal): 34.4
[4]
  fold increase of ratio over parental SEQ ID NO: 6: 1.62
  ratio (binding signal/HTRF signal): 28.1
[5]
  fold increase of ratio over parental SEQ ID NO: 6: 2.85
  ratio (binding signal/HTRF signal): 49.5
[6]
  fold increase of ratio over parental SEQ ID NO: 6: 2.36
  ratio (binding signal/HTRF signal): 41
[7]
  fold increase of ratio over parental SEQ ID NO: 6: 2.11
  ratio (binding signal/HTRF signal): 36.6
[8]
  fold increase of ratio over parental SEQ ID NO: 6: 4.25
  ratio (binding signal/HTRF signal): 73.8
[9]
  fold increase of ratio over parental SEQ ID NO: 6: 3
  ratio (binding signal/HTRF signal): 52.1
[10]
  fold increase of ratio over parental SEQ ID NO: 6: 1.47
  ratio (binding signal/HTRF signal): 25.5
[11]
  fold increase of ratio over parental SEQ ID NO: 6: 1.72
  ratio (binding signal/HTRF signal): 29.9
[12]
  fold increase of ratio over parental SEQ ID NO: 6: 4.37
  ratio (binding signal/HTRF signal): 75.8
[13]
  fold increase of ratio over parental SEQ ID NO: 6: 3.61
  ratio (binding signal/HTRF signal): 62.7
[14]
  fold increase of ratio over parental SEQ ID NO: 6: 3.14
  ratio (binding signal/HTRF signal): 54.5
[15]
  CR6261 binding signal: 69700
[16]
  CR6261 binding signal: 300000
[17]
  CR6261 binding signal: 215000
[18]
  CR6261 binding signal: 1.01e+06
[19]
  CR6261 binding signal: 92700
[20]
  CR6261 binding signal: 303000
[21]
  CR6261 binding signal: 471000
[22]
  CR6261 binding signal: 171000
[23]
  CR6261 binding signal: 203000
[24]
  CR6261 binding signal: 77800
[25]
  CR6261 binding signal: 386000
[26]
  CR6261 binding signal: 460000
[27]
  CR6261 binding signal: 184000
[28]
  CR6261 binding signal: 79700
[29]
  CR6261 binding signal: 258000
[30]
  CR6261 binding signal: 446000
[31]
  CR6261 binding signal: 106000
[32]
  CR6261 binding signal: 457000
[33]
  CR6261 binding signal: 206000
[34]
  CR6261 binding signal: 582000
[35]
  CR6261 binding signal: 73400
[36]
  CR6261 binding signal: 196000
[37]
  CR6261 binding signal: 271000
[38]
  CR6261 binding signal: 316000
[39]
  CR6261 binding signal: 108000
[40]
  CR6261 binding signal: 1.35e+06
[41]
  CR6261 binding signal: 253000
[42]
  CR6261 binding signal: 90700
[43]
  CR6261 binding signal: 238000

Reference: US20170209564A1
